According to article PMC8772750:
Read-outs that look alike come from different tables or passages of the source.

Key:
human α-thrombin (human) [1] = target: human α-thrombin (human) (UniProt P00734)
human α-thrombin (human) [2] = target: human α-thrombin (human) (UniProt P00734); assay: enzyme inhibition kinetics (thrombin amidolytic assay with S-2238); tight-binding assay: inhibitor incubated with 500 pM thrombin for 30 min at 37 °C, then S-2238 added to 50-500 µM; 50 mM Tris-HCl pH 8.4, 150 mM NaCl, 0.1% PEG 6000; Morrison equation for tight-binding competitive inhibitors, apparent Ki' plotted against substrate concentration to obtain Ki
[3] = target: Variegin (Amblyomma variegatum) (UniProt P85800); conditions: cited from earlier work
[4] = target: Variegin (Amblyomma variegatum) (UniProt P85800); conditions: cited from earlier work; remark: listed apart in the source

| Substance | IC50 of inhibition of thrombin amidolytic activity (500 pM thrombin, 100 µM S-2238), preincubation 0 min (human α-thrombin (human) [1]) | IC50 of inhibition of thrombin amidolytic activity (500 pM thrombin, 100 µM S-2238), preincubation 30 min (human α-thrombin (human) [1]) | Ki (human α-thrombin (human) [2]) [nM] | Ki [3] [nM] | Ki [4] [nM] |
| --- | --- | --- | --- | --- | --- |
| recombinant anophelin from Anopheles albimanus (natural protein) | 6.35 nM | 6.78 nM | 0.0994 |  |  |
| recombinant variegin from the tick Amblyomma variegatum (from UniProt P85800 1-32) (peptide) | 14.6 nM | 18.4 nM | 0.372 |  |  |
| recombinant hirudin-1 from Hirudo medicinalis (desirudin) (from UniProt P01050 1-65) (natural protein) | 21.5 pM | 28 pM | 0.000217 |  |  |
| recombinant haemadin from the leech Haemadipsa sylvestris (natural protein) | 22 pM | 33.1 pM | 0.000237 |  |  |
| Thrombin (from UniProt P00734) |  |  |  | 14 | 0.0104 |
